Reference: paper PMC5606208 (Nature, 2017)

B1: nPhos-HP1α (HP1α S92A, S95A, S97A co-expressed with CKII, phosphorylated only in the N-terminal extension) (natural protein, human, UniProt P45973 1-191, looked up)
chain: MGKKTKRTADSSSSEDEEEYVVEKVLDRRVVKGQVEYLLKWKGFSEEHNTWEPEKNLDCPELISEFMKKYKKMKEGENNKPREKSESNKRKANFANAADDIKSKKKREQSNDIARGFERGLEPEKIIGATDSCGDLMFLMKWKDTDEADLVLAKEANVKCPQIVIAFYEERLTWHAYPEDAENKEKETAKS
modifications: phosphorylated at Ser11, Ser12, Ser13, Ser14 (NTE); 8 phosphates per dimer by native MS
B2: PhosNH-α/βchimera (N-terminus and Hinge from HP1α with the Chromodomain, Chromoshadow domain and CTE from HP1β, phosphorylated) (other, human)
chain: GKKTKRTADSSSSEDEEEYVVEKVLDRRVVKGKVEYLLKWKGFSDEDNTWEPEENLDCPDLISEFMKKYKKMKEGENNKPREKSESNKRKSNFSNSADDIKSKKKREQSNDIARGFARGLEPERIIGATDSSGELMFLMKWKNSDEADLVPAKEANVKCPQVVISFYEERLTWHSYPSEDDDKKDDKN
modifications: phosphorylated NTE (fully phosphorylated, sites not given)

Assays:
SEC-MALS = biological target: the molecule itself; assay: SEC-MALS
AUC = biological target: the molecule itself; assay: AUC

| Protein | stoichiometry N (SEC-MALS) | binding result (AUC) |
| --- | --- | --- |
| B1 | 2 |  |
| B2 |  | binds |
